Results reported in article PMC8239744, “Mutations in myosin S2 alter cardiac myosin-binding protein-C interaction in hypertrophic cardiomyopathy in a phosphorylation-dependent manner” (The Journal of Biological Chemistry, 2021).

Key:
[1] = target: human β-myosin heavy chain, proximal S2 (hS2) proximal S2, 838-963 (UniProt P12883); test: solid-phase binding assay (SPBA); settings: sites S273,S282,S302
[2] = target: PKA-phosphorylated human C0-C2 (hC0-C2p) (human) (UniProt Q14896); test: solid-phase binding assay (SPBA); 20 μM C0-C2 (bait) adsorbed onto microtiter plates overnight at 4 °C; 0-20 μM recombinant myosin S2 (prey) added; bound S2 detected with polyclonal anti-S2 antibody and Alexa Fluor 568 secondary antibody; intensity normalised to that at maximal S2; one-phase association fit for Bmax and Kd
[3] = target: human C0-C2 region of cardiac myosin-binding protein-C (hC0-C2) (human) (UniProt Q14896); test: as above
[4] = target: mouse recombinant C0-C2 protein, phospho-mimetic (mC0-C2^DDD) (mouse) (UniProt O70468); test: as above
[5] = target: mouse recombinant C0-C2 protein, phospho-ablated (mC0-C2^AAA) (mouse) (UniProt O70468); test: as above
[6] = target: mouse recombinant C0-C2 protein, WT (mC0-C2^Wt) (mouse, UniProt O70468 1-448); test: as above; settings: both partners purified
[7] = target: human C0-C2 region of cardiac myosin-binding protein-C (hC0-C2) (human) (UniProt Q14896); test: ITC; 350 μM hS2 titrated into 20 μM hC0-C2 (with or without PKA phosphorylation) in PBS at 20 °C; MicroCal VP-ITC; 25 injections of 10 μl at 180 s; four-parameter logistic fit; Kd calculated from the reciprocal of the slope
[8] = target: PKA-phosphorylated human C0-C2 (hC0-C2p) (human) (UniProt Q14896); test: as above

mouse recombinant C0-C2 protein, phospho-ablated (mC0-C2^AAA) (mouse), sequence (O70468 other isoform, or with tags, fused parts or gaps): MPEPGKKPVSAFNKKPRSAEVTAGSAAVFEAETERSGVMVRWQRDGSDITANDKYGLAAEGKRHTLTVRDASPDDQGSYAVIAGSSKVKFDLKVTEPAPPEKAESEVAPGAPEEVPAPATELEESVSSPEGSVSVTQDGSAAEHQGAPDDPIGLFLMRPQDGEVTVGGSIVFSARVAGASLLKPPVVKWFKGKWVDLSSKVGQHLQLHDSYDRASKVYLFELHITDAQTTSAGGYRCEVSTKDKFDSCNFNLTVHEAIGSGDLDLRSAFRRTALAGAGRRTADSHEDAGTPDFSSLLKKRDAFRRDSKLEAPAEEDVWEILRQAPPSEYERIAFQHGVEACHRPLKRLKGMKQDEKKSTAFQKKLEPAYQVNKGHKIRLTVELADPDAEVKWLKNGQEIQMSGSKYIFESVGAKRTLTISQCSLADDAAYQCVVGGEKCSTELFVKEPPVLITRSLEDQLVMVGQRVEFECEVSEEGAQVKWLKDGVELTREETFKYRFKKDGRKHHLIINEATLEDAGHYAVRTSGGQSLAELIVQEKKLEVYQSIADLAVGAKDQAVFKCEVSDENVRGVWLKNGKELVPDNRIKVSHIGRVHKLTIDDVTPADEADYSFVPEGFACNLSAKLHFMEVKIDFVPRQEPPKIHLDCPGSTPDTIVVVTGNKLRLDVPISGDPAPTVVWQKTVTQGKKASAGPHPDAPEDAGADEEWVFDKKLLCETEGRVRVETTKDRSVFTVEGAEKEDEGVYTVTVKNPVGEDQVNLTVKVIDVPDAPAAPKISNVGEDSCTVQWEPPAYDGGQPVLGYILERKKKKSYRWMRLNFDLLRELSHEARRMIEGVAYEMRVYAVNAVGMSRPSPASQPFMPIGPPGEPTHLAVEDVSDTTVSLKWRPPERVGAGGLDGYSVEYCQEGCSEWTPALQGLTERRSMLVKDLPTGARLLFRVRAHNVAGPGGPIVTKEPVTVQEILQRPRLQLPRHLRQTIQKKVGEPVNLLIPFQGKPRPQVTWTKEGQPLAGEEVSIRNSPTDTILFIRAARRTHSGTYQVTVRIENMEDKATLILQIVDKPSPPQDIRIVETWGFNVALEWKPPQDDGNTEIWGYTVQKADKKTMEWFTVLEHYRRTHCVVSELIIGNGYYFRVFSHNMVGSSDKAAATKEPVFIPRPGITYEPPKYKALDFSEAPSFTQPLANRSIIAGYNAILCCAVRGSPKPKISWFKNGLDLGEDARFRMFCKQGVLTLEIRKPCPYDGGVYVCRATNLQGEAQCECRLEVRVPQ
mouse recombinant C0-C2 protein, WT (mC0-C2^Wt), sequence (O70468 1-448): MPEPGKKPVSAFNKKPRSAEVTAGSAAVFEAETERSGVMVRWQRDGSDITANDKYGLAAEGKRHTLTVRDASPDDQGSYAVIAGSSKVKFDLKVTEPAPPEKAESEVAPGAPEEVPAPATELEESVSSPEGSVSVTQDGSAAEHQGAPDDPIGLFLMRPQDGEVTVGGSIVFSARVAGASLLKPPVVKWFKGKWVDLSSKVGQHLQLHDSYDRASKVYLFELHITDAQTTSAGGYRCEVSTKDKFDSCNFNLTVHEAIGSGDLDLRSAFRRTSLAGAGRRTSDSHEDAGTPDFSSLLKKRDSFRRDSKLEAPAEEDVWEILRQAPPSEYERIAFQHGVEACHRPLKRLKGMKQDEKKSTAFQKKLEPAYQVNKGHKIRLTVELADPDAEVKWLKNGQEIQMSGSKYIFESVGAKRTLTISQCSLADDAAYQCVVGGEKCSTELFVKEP
mouse recombinant C0-C2 protein, phospho-mimetic (mC0-C2^DDD) (mouse), sequence (O70468 other isoform, or with tags, fused parts or gaps): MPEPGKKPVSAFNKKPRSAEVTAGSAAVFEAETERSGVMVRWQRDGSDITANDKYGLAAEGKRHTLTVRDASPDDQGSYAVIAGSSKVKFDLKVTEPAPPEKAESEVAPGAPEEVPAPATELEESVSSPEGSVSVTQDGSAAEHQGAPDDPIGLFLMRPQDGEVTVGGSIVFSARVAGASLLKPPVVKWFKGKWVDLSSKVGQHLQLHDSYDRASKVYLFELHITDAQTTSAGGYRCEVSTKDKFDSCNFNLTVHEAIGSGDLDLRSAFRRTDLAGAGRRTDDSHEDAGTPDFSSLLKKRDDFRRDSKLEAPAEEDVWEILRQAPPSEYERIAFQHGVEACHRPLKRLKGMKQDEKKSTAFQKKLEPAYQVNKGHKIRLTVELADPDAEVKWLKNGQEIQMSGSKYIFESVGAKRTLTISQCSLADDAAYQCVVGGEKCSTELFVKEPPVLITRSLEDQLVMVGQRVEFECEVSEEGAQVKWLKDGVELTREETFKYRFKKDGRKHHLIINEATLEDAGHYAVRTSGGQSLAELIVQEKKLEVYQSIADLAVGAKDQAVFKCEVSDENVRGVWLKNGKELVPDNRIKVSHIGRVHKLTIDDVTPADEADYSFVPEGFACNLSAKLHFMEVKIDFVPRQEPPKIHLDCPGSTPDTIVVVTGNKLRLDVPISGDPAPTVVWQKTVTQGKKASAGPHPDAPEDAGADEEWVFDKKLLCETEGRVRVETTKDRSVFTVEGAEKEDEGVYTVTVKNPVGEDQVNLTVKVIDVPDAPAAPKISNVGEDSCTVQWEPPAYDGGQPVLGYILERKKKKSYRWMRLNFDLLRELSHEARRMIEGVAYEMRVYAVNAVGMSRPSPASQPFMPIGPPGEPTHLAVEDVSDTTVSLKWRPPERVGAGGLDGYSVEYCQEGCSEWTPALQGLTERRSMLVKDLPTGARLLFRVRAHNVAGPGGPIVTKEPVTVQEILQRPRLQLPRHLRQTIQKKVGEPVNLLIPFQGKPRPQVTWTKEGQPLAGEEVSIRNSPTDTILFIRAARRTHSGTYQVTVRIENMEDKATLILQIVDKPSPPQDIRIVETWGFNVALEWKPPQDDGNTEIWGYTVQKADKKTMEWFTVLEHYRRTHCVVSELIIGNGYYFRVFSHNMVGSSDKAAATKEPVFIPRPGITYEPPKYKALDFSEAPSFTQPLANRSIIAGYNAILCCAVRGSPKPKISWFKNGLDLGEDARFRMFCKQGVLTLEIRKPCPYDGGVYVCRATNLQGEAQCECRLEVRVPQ

## mouse cardiac myosin-binding protein-C (cMyBP-C), mC0-C2 C0-C2 (from UniProt O70468) mC0-C2 DDD
[1]; reference: mC0-C2 AAA
  other: Bmax: weaker; reference 0.95 ± 0.04
[1]; reference: mC0-C2 wild type
  other: Bmax: weaker; reference 1.02 ± 0.04

B1: human recombinant proximal S2 WT protein (hS2^Wt) (domain or fragment, UniProt P12883 838-963, looked up)
chain: PLLKSAEREKEMASMKEEFTRLKEALEKSEARRKELEEKMVSLLQEKNDLQLQVQAEQDNLADAEERCDQLIKNKIQLEAKVKEMNERLEDEEEMNAELTAKKRKLEDECSELKRDIDDLELTLAK
notes: pET28a+ vector; also called WT hS2; human cardiac myosin S2
[2]
  Kd: 7.35 µM
  stoichiometry (η) based on Bmax, hC0-C2p to hS2^Wt compared with hC0-C2 to hS2^WT: 1.26
[3]
  Kd: 5.04 µM
[4]
  Kd: 2.02 µM
[5]
  Kd: 1.81 µM
[6]
  Kd: 1.89 µM
[7]
  Kd: 4.71 µM
  stoichiometry N: 1.08

B2: human recombinant proximal S2 protein with E924K mutation (hS2^E924K) (domain or fragment, UniProt P12883 838-963, looked up)
chain: PLLKSAEREKEMASMKEEFTRLKEALEKSEARRKELEEKMVSLLQEKNDLQLQVQAEQDNLADAEERCDQLIKNKIQLEAKVKEMNKRLEDEEEMNAELTAKKRKLEDECSELKRDIDDLELTLAK
notes: human β-myosin heavy chain (MYH7), proximal S2, residues 838-963, with the HCM-causing mutation E924K; mutation found in HCM patients, introduced by site-directed mutagenesis; coiled coil in low-salt buffer by CD
[2]
  Kd: 0.83 µM
  stoichiometry (η) based on Bmax, hC0-C2p to hS2 mutant: 1.21
[3]
  Kd: 4.3 µM
  stoichiometry (η) based on Bmax, hC0-C2 to hS2 mutant compared with hS2^WT: 1.21
[4]
  Kd: 0.74 µM
[5]
  Kd: 1.48 µM
[6]
  Kd: 1.51 µM
[8]
  Kd: 16.5 µM
  stoichiometry N: 2.57
[7]
  Kd: 30.5 µM

B3: human recombinant proximal S2 protein with R870H mutation (hS2^R870H) (domain or fragment, UniProt P12883 838-963, looked up)
chain: PLLKSAEREKEMASMKEEFTRLKEALEKSEARHKELEEKMVSLLQEKNDLQLQVQAEQDNLADAEERCDQLIKNKIQLEAKVKEMNERLEDEEEMNAELTAKKRKLEDECSELKRDIDDLELTLAK
notes: human β-myosin heavy chain (MYH7), proximal S2, residues 838-963, with the HCM-causing mutation R870H; mutation found in HCM patients, introduced by site-directed mutagenesis; coiled coil in low-salt buffer by CD
[2]
  Kd: 1.26 µM
  stoichiometry (η) based on Bmax, hC0-C2p to hS2 mutant: 1.17
[3]
  Kd: 6.29 µM
  stoichiometry (η) based on Bmax, hC0-C2 to hS2 mutant compared with hS2^WT: 1.24
[4]
  Kd: 0.79 µM
[5]
  Kd: 1.51 µM
[6]
  Kd: 1.64 µM
[8]
  Kd: 11 µM
  stoichiometry N: 1.07
[7]
  Kd: 19 µM
  stoichiometry N: 2.53

B4: human recombinant proximal S2 protein with E930Δ mutation (hS2^E930Δ) (domain or fragment, UniProt P12883 838-963, looked up)
chain: PLLKSAEREKEMASMKEEFTRLKEALEKSEARRKELEEKMVSLLQEKNDLQLQVQAEQDNLADAEERCDQLIKNKIQLEAKVKEMNERLEDEEMNAELTAKKRKLEDECSELKRDIDDLELTLAK
notes: human β-myosin heavy chain (MYH7), proximal S2, residues 838-963, with the HCM-causing deletion of E930; mutation found in HCM patients, introduced by site-directed mutagenesis; coiled coil in low-salt buffer by CD
[2]
  Kd: 0.97 µM
  stoichiometry (η) based on Bmax, hC0-C2p to hS2 mutant: 1.24
[3]
  Kd: 6.67 µM
  stoichiometry (η) based on Bmax, hC0-C2 to hS2 mutant compared with hS2^WT: 1.23
[4]
  Kd: 0.88 µM
[5]
  Kd: 1.22 µM
[6]
  Kd: 1.32 µM
[8]
  Kd: 8.57 µM
  stoichiometry N: 0.35
[7]
  Kd: 42.3 µM
